# Assays:
# [1] = Pharmacokinetic study in mice; assay type: in vivo, mouse; conditions: male NMRI mice; i.v. 92 nmol/kg; serum; Z variants as fusions to PP013-Z03638
# Protocol: Z11947, Z11946 and Z11948 fused to PP013-Z03638 were administered intravenously (i.v.) to male NMRI mice (Charles River, Germany) at a dose of 92 nmol/kg body weight. Sera from groups of three mice were obtained at 0.08, 6, 18, 78, 120, 168 and 240 hours. The concentration of respective Z variant was determined by ELISA.
# Half-area 96-well ELISA plates were coated at 4° C. overnight with 50 μl/well of an Z specific goat antibody (produced in-house) diluted to 4 μg/ml in coating buffer (50 mM sodium carbonate, pH 9.6). The antibody solution was poured off and the wells were blocked with 100 μl of PBSC for 1.5 h at RT. The sera were diluted in PBSC plus 1% mouse serum (matrix) from 1:100 to 1:51,200 in a two-fold dilution series in a dilutions plate. […] Bound Z variants were detected with 50 μl/well of rabbit anti-PP013 Ig (produced in-house) diluted to 4 μg/ml in PBSC. […] After 15 minutes of development, the absorbance was measured at 450 nm using a multi-well plate reader (Victor^3). The absorbance values were analyzed using GraphPad Prism 5 to determine the concentrations (cubic-spline curve fit) and area under curve (AUC). […] The resulting curves followed a two compartment model and the terminal half-life was calculated as In2 divided by the slope based on the last three time points.
# [2] = biological target: human FcRn (Homo sapiens, UniProt P55899); assay: Biacore analysis of Z variants fused to PP013-Z03638; assay type: binding; parameters: made in house; host or cells: human SKOV-3 cells, lentivirally transduced, secreted; purified on immobilized human IgG; conditions: pH 6.0; 40, 160 and 640 nM
# human FcRn, sequence (P55899 24-290): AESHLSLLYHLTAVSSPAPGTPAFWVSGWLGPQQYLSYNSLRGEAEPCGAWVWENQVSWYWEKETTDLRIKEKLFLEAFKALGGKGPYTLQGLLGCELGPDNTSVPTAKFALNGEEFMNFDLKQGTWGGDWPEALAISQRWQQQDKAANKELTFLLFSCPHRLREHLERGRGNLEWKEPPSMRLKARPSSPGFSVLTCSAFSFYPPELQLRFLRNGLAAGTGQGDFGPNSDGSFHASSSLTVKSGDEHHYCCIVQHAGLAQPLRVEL
# human FcRn, sequence (P61769 21-119 partner): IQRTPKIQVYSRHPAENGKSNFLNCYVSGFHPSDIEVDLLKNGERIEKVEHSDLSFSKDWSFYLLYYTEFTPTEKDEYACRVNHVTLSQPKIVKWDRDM
# Protocol: Expressed and purified Z variants fused to PP013-Z03638 were assayed against human FcRn at pH 6.0 essentially as described for the kinetic analysis in Example 3. The Z variants and the negative control Z03638-PP013 were injected at 40 nM, 160 nM and 640 nM during 1 minute followed by dissociation for 2.5 minutes and equilibration for 1 minute. Kinetic constants and affinities were determined for the Z variants using the BiaEvaluation software.
substance,measurement,setting,value
Z03638-PP013: negative control molecule [Z03638]-GAP(G4S)4TS-[PP013]; Taq polymerase binding Z variant fused to albumin binding polypeptide,terminal half-life,[1],approximately 43 hours
same,binding to FcRn,[2],negative against FcRn
